Measurements from paper PMC6331586, “Rapid determination of quaternary protein structures in complex biological samples” (Nature Communications, 2019).

Molecular target: human serum albumin (human, UniProt P02768 25-609)
Assay: cross-linking
Details: both partners purified

B1: M1 protein (amino acids 42–484), recombinant (domain or fragment)
chain: NGDGNPREVIEDLAANNPAIQNIRLRYENKDLKARLENAMEVAGRDFKRAEELEKAKQALEDQRKDLETKLKELQQDYDLAKESTSWDRQRLEKELEEKKEALELAIDQASRDYHRATALEKELEEKKKALELAIDQASQDYNRANVLEKELETITREQEINRNLLGNAKLELDQLSSEKEQLTIEKAKLEEEKQISDASRQSLRRDLDASREAKKQVEKDLANLTAELDKVKEDKQISDASRQGLRRDLDASREAKKQVEKDLANLTAELDKVKEEKQISDASRQGLRRDLDASREAKKQVEKALEEANSKLAALEKLNKELEESKKLTEKEKAELQAKLEAEAKALKEQLAKQAEELAKLRAGKASDSQTPDTKPGNKAVPGKGQAPQAGTKPNQNKAPMKETKRQLPSTGETANPFFTAAALTVMATAGVAAVVKRKEEN
notes: source: E. coli BL21 (DE3), purified (fibrinogen column, Ni-coupled Imac Sepharose)
binding result: binds
